Results taken from patent US20100196266A1 (published 2010).

Tests used:
[1] = target: T1, human leukocyte antigen-DR (HLA-DR) on human lymphoma and leukemia cell lines and human lymphocytes (human); test: indirect FACS, FITC-GAH Fc, WSU-FSCCL cells; none 2.6
[2] = target: T1, human leukocyte antigen-DR (HLA-DR) on …; test: indirect FACS, FITC-GAH Fc, Raji cells; none 6.8
[3] = target: T1, human leukocyte antigen-DR (HLA-DR) on …; test: indirect FACS, FITC-GAH Fc, Namalwa cells; none 2.5
[4] = target: T1, human leukocyte antigen-DR (HLA-DR) on …; test: indirect flow cytometry, FITC-GAH Fc, Daudi cells; none 3.2
[5] = target: T1, human leukocyte antigen-DR (HLA-DR) on …; test: indirect FACS, FITC-GAH Fc, Daudi cells; none 3.1
[6] = target: T1, human leukocyte antigen-DR (HLA-DR) on …; test: indirect FACS, FITC-GAH Fc, SU-DHL-6 cells; none 4.6
[7] = target: T1, human leukocyte antigen-DR (HLA-DR) on …; test: indirect flow cytometry, FITC-GAH Fc, RL cells; none 2.4
[8] = target: T1, human leukocyte antigen-DR (HLA-DR) on …; test: indirect flow cytometry, FITC-GAH Fc, Raji cells; none 6.9
[9] = target: T1, human leukocyte antigen-DR (HLA-DR) on …; test: indirect flow cytometry, FITC-GAH Fc, SU-DHL-6 cells; none 4.6
[10] = target: T1, human leukocyte antigen-DR (HLA-DR) on …; test: indirect flow cytometry, FITC-GAH Fc, WSU-FSCCL cells; none 2.7
[11] = target: T1, human leukocyte antigen-DR (HLA-DR) on …; test: indirect flow cytometry, Namalwa cells, FITC-GAH; none 2.52
[12] = target: T1, human leukocyte antigen-DR (HLA-DR) on …; test: indirect flow cytometry, FITC-GAH Fc, Namalwa cells; none 2.6
[13] = target: T1, human leukocyte antigen-DR (HLA-DR) on …; test: indirect flow cytometry, FITC-GAH Fc, Ramos cells; none 3.1
[14] = target: T1, human leukocyte antigen-DR (HLA-DR) on …; test: indirect FACS, FITC-GAH Fc, Ramos cells; none 3.1

Geometric Mean Fluorescence [1]: 467 | Geometric Mean Fluorescence [2]: 972 | Geometric Mean Fluorescence [3]: 261 | Geometric Mean Fluorescence [4]: 937 | Geometric Mean Fluorescence [5]: 937 | Geometric Mean Fluorescence [6]: 572 | Geometric Mean Fluorescence [7]: 112 | Geometric Mean Fluorescence [8]: 972 | Geometric Mean Fluorescence [9]: 572 | Geometric Mean Fluorescence [10]: 467 | GEO MEAN Fluorescence [11]: 324 | Geometric Mean Fluorescence [12]: 261 | Geometric Mean Fluorescence [13]: 278 | Geometric Mean Fluorescence [14]: 278
B1: hL243γ4P (humanized L243, IgG4/K isotype with hinge mutation Ser241Pro) (antibody, V domains shown)
VH: QVQLQQSGSELKKPGASVKVSCKASGFTFTNYGMNWVKQAPGQGLKWMGWINTYTREPTYADDFKGRFAFSLDTSVSTAYLQISSLKADDTAVYFCARDITAVVPTGFDYWGQGSLVTVSS
VL: DIQLTQSPSSLSASVGDRVTITCRASENIYSNLAWYRQKPGKAPKLLVFAASNLADGVPSRFSGSGSGTDYTFTISSLQPEDIATYYCQHFWTTPWAFGGGTKLQIKR
notes: Same V domains as hL243; human γ4 constant region with Ser241Pro (Kabat numbering) in the hinge, human kappa; also called hL243 (IgG4 isotype)
